Article PMC314469, “Protein Interaction Networks by Proteome Peptide Scanning” (PLoS Biology, 2004)

T1: Rvs167 SH3 (RV167_YEAST), P39743
T1 chain: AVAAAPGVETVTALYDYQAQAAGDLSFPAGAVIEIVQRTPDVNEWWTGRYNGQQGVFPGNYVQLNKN

T2: Yhr016c SH3 (YSC84_YEAST), P32793
T2 chain: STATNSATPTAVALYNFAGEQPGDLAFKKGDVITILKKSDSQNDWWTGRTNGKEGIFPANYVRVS

T3: Boi2 SH3 (BOI2_YEAST), P39969
T3 chain: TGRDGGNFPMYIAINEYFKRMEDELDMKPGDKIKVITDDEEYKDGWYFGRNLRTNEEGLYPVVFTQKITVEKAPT

T4: Yfr024 SH3 (LSB3_YEAST), P43603
T4 chain: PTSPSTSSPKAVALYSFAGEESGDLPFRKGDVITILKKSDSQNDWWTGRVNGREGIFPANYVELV

T5: Boi1 SH3 (BOI1_YEAST), P38041
T5 chain: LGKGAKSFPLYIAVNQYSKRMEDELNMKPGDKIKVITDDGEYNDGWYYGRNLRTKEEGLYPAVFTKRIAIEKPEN


Assays:
Experiment in all cases: SPOT array
[1] = target: T1, Rvs167 SH3 (RV167_YEAST), P39743
[2] = target: T2, Yhr016c SH3 (YSC84_YEAST), P32793
[3] = target: T3, Boi2 SH3 (BOI2_YEAST), P39969
[4] = target: T4, Yfr024 SH3 (LSB3_YEAST), P43603
[5] = target: T5, Boi1 SH3 (BOI1_YEAST), P38041

normalised SPOT signal, Boehringer light units (BLU); mean over the file's lines of this peptide [1] | normalised SPOT signal, Boehringer light units (BLU); mean over the file's lines of this peptide [2] | normalised SPOT signal, Boehringer light units (BLU); mean over the file's lines of this peptide [3] | normalised SPOT signal, Boehringer light units (BLU); mean over the file's lines of this peptide [4] | normalised SPOT signal, Boehringer light units (BLU); mean over the file's lines of this peptide [5] | Binder
198 | 124 | 384 | 808 | 8450 | YILPKNPFRVPSEM [YGR293C 125-138]
56.8 | 128 | 90 | 2650 | 442 | VTQPITPVKKRRSE [YNL230C 264-277]
17.7 | 364 | 20.4 | 1890 | 122 | VTTPLKPKRLAIPI [YJR083C 47-60]
168 | 364 | 227 | 5890 | 85.4 | WISPDTPLKFPLNE [YJL093C 636-649]
50.5 | 230 | 69.6 | 3360 | 0 | VTVPKLPFKLAVNK [YBR040W 181-194]
25.8 | 79.2 | 33.4 | 951 | 52.6 | VTLPISPSRASISF [YGL235W 70-83]
1 | 136 | 19 | 861 | 164 | VTKPVVPKKTKKSA [YLR087C 319-332]
55.9 | 173 | 50.3 | 70.5 | 59.7 | VVSPSHPFKQLQKI [YIL146C 146-159]
1090 | 802 | 3020 | 2320 | 326 | WSYPYEPLRVLQVG [YDR415C 17-30]
17.1 | 132 | 17.4 | 298 | 32.4 | VYVPINPPKELDQR [YJL060W 164-177]
63.3 | 209 | 38.1 | 172 | 156 | YGPPTDPRKQKQAK [YDR001C 36-49]
580 | 2250 | 1180 | 13300 | 571 | VYSPIQPRRRKDSS [YLR228C 72-85]
385 | 1750 | 26.2 | 3320 | 137 | YKIPVVPPRETYFA [YGR166W 507-520]
48.9 | 25.5 | 47.1 | 1300 | 30.3 | WNDPSDPTKGFQYL [YMR207C 1538-1551]
22.6 | 168 | 34 | 533 | 94.3 | VVLPKFPDKSFVLD [YLR215C 239-252]
24.1 | 143 | 19.3 | 38.2 | 94.8 | VTLPTGPAKIIWEK [YHR007C 510-523]
53.6 | 55.4 | 35.5 | 695 | 62.2 | VSTPPVPKKFQEIF [YDL107W 9-22]
254 | 258 | 8.3 | 804 | 1480 | YDFPTVPARKFVQP [YNR006W 578-591]
57 | 34.3 | 58.3 | 88.7 | 178 | YLDPFHPKRKFIGV [YNL005C 96-109]
870 | 1040 | 2670 | 6480 | 143 | WNLPWSPFKITTIM [YDR211W 95-108]
1860 | 3610 | 0 | 4480 | 50.6 | VVIPPVPSRYSDER [YDL117W 95-108]
12900 | 24500 | 2000 | 47500 | 7340 | WKPPDLPIRLRKRP [YIL156W 502-515]
